± gives the standard deviation.
Experiment: protein stability index of a GFP-peptide fusion (GPS, HEK-293T) (PSI 1-6); higher = more stable
Conditions: c terminus: a fixed tail appended
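Also: 24-mer peptide tiles fused after GFP, lentivirally expressed, FACS-sorted into six equal bins by GFP/DsRed ratio, decoded by Illumina sequencing, PSI is the read-weighted mean bin number.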

| Sequence | protein stability index (treatment: DMSO) | protein stability index (treatment: MLN4924 1 uM, 8 h) |
| --- | --- | --- |
| CDALRTLAEARRLFPGRVSVDLML [RSAD1] | 2.05 ± 0.33 | 2.03 ± 0.37 |
| SPAKASQASKLRASKEEKEDWLSH [FBF1] | 4.92 ± 0.37 | 4.92 ± 0.3 |
| ARGIAGEKFDIVKKWGINTYKCTK [ARFIP2] | 3.3 ± 0.35 | 3.27 ± 0.077 |
| DYDDGFSMKHTATARFQRNHRLIS [SMARCE1] | 2.99 ± 0.1 | 3.19 ± 0.31 |
| VAVLKGEQEKEAQHKDQTAALPLA [MAP2] | 5.28 ± 0.17 | 5.09 ± 0.27 |
| SHSNITGIVEVILGETKAYVFFEK [TRIB1] | 2.41 ± 1 | 1.9 ± 0.58 |
| GFSCNQGRYPLIQTLRQELSLPYL [CHIT1] | 2.16 ± 0.33 | 2.4 ± 0.24 |
| RTSSGNVWVTHEEMETLETSTKTD [PPFIA4] | 5.24 ± 0.35 | 4.99 ± 0.06 |
| HYFHSISYKIEEISPSTLKNSLFP [KCNK9] | 2.17 ± 0.28 | 2.18 ± 0.18 |
| PKKPIGGNIIAHASTTRLYLRKGR [RAD51] | 3.79 ± 0.29 | 3.74 ± 0.17 |
| LRREPSERLTAPEILLHPWFESVL [TRIB1] | 2.51 ± 0.25 | 2.74 ± 0.52 |
| GELLATGDKGGRVVIFQREPESKN [PPP2R2C] | 4.61 ± 0.37 | 4.93 ± 0.21 |
| IDDRYGDLDSRTDSDIPEIPPSSD [CDS1] | 5.43 ± 0.34 | 5.45 ± 0.19 |
| LIYDFIEDQGGLEAVRQEMRRQEP [WAS] | 2.55 ± 0.28 | 2.75 ± 0.42 |
| TCFVRDGKTYCKRDYVRLFGIKCA [ISL2] | 2.46 ± 0.18 | 2.17 ± 0.19 |
| KNTTYDLIANIVHDGKPSEGSYRI [USP39] | 2.62 ± 0.4 | 2.52 ± 0.32 |
| SILTDNPTWIIDPIDGTTNFVHRF [IMPA1] | 2.19 ± 0.26 | 2.12 ± 0.27 |
| FIALLILFILSTLVVDYIDEGRLV [SOAT1] | 3.18 ± 0.3 | 3.26 ± 0.5 |
| EQQRCLLLARLRELEQQIWKERDE [TRIM15] | 3.03 ± 0.28 | 3.29 ± 0.36 |
| TVNVQRTGQPLPQSIQQAMRYLRN [DLC1] | 3.17 ± 0.18 | 3.33 ± 0.23 |
| LFGTIAYLPPERIREKSRLFDTKH [RIPK4] | 2.57 ± 0.52 | 2.57 ± 0.27 |
| CQACRFMKCLKVGMLKEGVRLDRV [ESRRG] | 2.6 ± 0.45 | 2.04 ± 0.16 |

| Sequence | protein stability index (treatment: DMSO) | protein stability index (treatment: MLN4924 1 uM, 8 h) |
| --- | --- | --- |
| KLRFNRKKKGMYRKAITEAANAAR [PWWP2B] | 3.42 ± 0.23 | 3.29 ± 0.2 |
| LFYFFLYQYCSIHCSDRKQVRNIA [CSTF3] | 2.92 ± 0.83 | 2.61 ± 0.33 |
| PKDIYSSFGFPRTVKHIDAALSEE [MMP1] | 3.9 ± 0.29 | 4.04 ± 0.23 |
| HQRKYTQSFCGENIMMPMGGMMPP [ZNF207] | 2.34 ± 0.15 | 2.49 ± 0.16 |
| EDQEEWHAQVVEELSNFKSQKVLG [ZBED1] | 5.41 ± 0.21 | 5.54 ± 0.21 |
| YDQLKAFLCGRALTSDLYAPMVAG [SLC25A39] | 2.61 ± 0.2 | 2.04 ± 0.15 |
| GQALLTHLYQSSARRYAGPLHHQT [ELAVL3] | 2.4 ± 0.14 | 2.71 ± 0.097 |
| GLSQAPQPLADEGPPGRSIGGAAP [SERTAD1] | 5.05 ± 0.31 | 5.29 ± 0.21 |
| KETEFLRLKRTRLGLDDFESLKVI [STK38L] | 2.44 ± 0.16 | 2.56 ± 0.34 |
| QIEKTTNREACRDLSGRRLRDVNH [SDE2] | 4.18 ± 0.24 | 4.11 ± 0.6 |
| NVSVMHKSLDNMPNDEHWKALSRK [FBXO33] | 4.19 ± 0.089 | 4.03 ± 0.14 |
| PLAVENQAGGEGAGGELGISLNMC [PBXIP1] | 4.22 ± 0.25 | 4.12 ± 0.24 |
| QHSVPLQLELRAGAERLDALLADE [TRADD] | 4.63 ± 0.31 | 4.62 ± 0.47 |
| GMAFFKMREMFFEDHIDDAKYCGH [CNOT7] | 2.35 ± 0.2 | 2.36 ± 0.16 |
| FEKWEQETAAGKGKGEARARLKRS [SMTNL2] | 4.87 ± 0.15 | 5.07 ± 0.21 |
| QSLTEDLEFRKSMYEEEINETRRK [LMNB1] | 4.99 ± 0.26 | 5.04 ± 0.18 |
| MITVQLPEVPANENIKGYYIIIVP [PTPRD] | 3 ± 0.77 | 2.99 ± 0.62 |
| GIVESIQIMKEGKATASEAVDCKW [NETO1] | 3.71 ± 1.3 | 3.99 ± 0.2 |
| EKEVLRRERAVEWRERAVEKRERA [ZBED2] | 4.93 ± 0.44 | 4.95 ± 0.27 |
| ILEDMRCQYEALVENNRRDVEAWF [KRT36] | 2.49 ± 0.19 | 2.84 ± 0.45 |
| YLPRDFSTYRPLPDPSVWSRRYTE [MYORG] | 2.64 ± 0.17 | 2.82 ± 0.29 |
| PPKVKAEDGMQCLQLKETLATQEP [DLC1] | 5.3 ± 0.17 | 5.16 ± 0.2 |

| Sequence | protein stability index (treatment: DMSO) | protein stability index (treatment: MLN4924 1 uM, 8 h) |
| --- | --- | --- |
| YCAKLCEPQWFYEETESSDDVEVL [C8orf76] | 2.98 ± 0.67 | 3.6 ± 0.79 |
| IQQLLEPQQYMAFLPHHIMVKIFR [FBXO34] | 2.13 ± 0.31 | 2.53 ± 0.29 |
| QNPQITQLKIAANPFAKGFRENGR [TBX6] | 3.33 ± 0.29 | 3.35 ± 0.46 |
| ILRAIGKGSFGKVCIVQKNDTKKM [STK32A] | 2.4 ± 0.45 | 2.56 ± 0.22 |
| PPPPRSRGPPRGLRGGRGGSGGTR [RBMX] | 5.11 ± 0.5 | 4.96 ± 0.32 |
| SNFEQTQIQEFKEAFTLMDQNRDG [MYL5] | 5.11 ± 0.2 | 4.93 ± 0.33 |
| DLNKDKPVIPAAALAGYTGSGPIQ [ETS1] | 4.2 ± 0.13 | 4.14 ± 0.25 |
| GMVTRCIIEVLSNALSKSSAPPIT [CHGB] | 3.07 ± 0.29 | 3.08 ± 0.23 |
| LCSSPLEAETPPNGPDCGYGSFHQ [ATE1] | 4.28 ± 0.18 | 4.24 ± 0.079 |
| SKTEELNREVATNSELVQSGKSEI [KRT17] | 5.34 ± 0.22 | 5.06 ± 0.1 |
| KIIICSQNEEYLLTYINEDRISTT [PLK2] | 2.02 ± 0.35 | 2.06 ± 0.36 |
| APVILVGCQLDLRYADLEAVNRAR [RHOBTB2] | 2.57 ± 0.17 | 2.45 ± 0.21 |
| SWNSQSSLLDVQRVPSFESFEDDC [ETS2] | 4.84 ± 0.17 | 4.67 ± 0.13 |
| TRSCSSASSRSQQSSKRSSRSVED [CLK3] | 5.047 ± 0.044 | 5.02 ± 0.22 |
| TTLDEFPLTRLGQLKACTNFDDIL [KCNG1] | 2.99 ± 0.26 | 2.92 ± 0.22 |
| LKKGESECQYYIDKLEYLDEKQRD [NET1] | 4.55 ± 0.15 | 4.5 ± 0.32 |
| AAASAKDIYYNNMEEVCGGEKPYL [ATL3] | 4.21 ± 0.25 | 4.01 ± 0.069 |
| DAKDAARDMNGKSLDGKAIKVEQA [RBMX] | 5.36 ± 0.41 | 5.37 ± 0.39 |
| GGLLSYDEGGITKQPPVTQSKTAS [FBF1] | 4.96 ± 0.18 | 4.89 ± 0.33 |
| TPTPVAAALDACSGNDPFAPSEGS [SNAP91] | 5.29 ± 0.32 | 5.47 ± 0.24 |
| MTVKQYEAARLEYDAYRTDLEELS [ARFIP2] | 3.84 ± 0.19 | 3.97 ± 0.21 |
